Experiment: soluble on expression in E. coli; label from the status in PepcDB or PDB records

Soluble on expression in E. coli, not soluble:
MGSDKIHHHHHHMYLKISHTTEYHYDEPVQYALQRLRLTPVNLPGQTVRNWKTLVDGAAIEVSYDDQFGNRTHLVSLDADRTTLCIEANGEVETEDRAGVFGAHQSYVPLWLYARETPLTKPGKRIRELAKAAGGATELERMHALMAIIHETVRYEQGETQVGTSAEEALERGKGVCQDHAHILISAARTLGLPARYVSGYLMMEDHPQQTASHAWADVHIAGLGWVGFDPANKVCPDDRYVRIASGLCYRDAAPVSGLVHGTGTETLKVAVTVEQQGQSQAQN, MGSDKIHHHHHHMYLLDSAIAKQIVSRTMKIIGHNINVMNGQGMILGSGDPKRIGSIHEGALLAIAQNRNVEISQEVAASLHGVKPGINLPLHYQGQIIGVVGITGDPNELTHYGELLKMTAEMIVEQANLQDKLQWENRQREEFILQLIKAETDDRQLHRWAKQLDIDMSMPRVAAIIEISEKSTPIKIPKRPSDPLAIDLADTLQVNASDDRNHRVGETLKQVLHLLQYPDRGNLIAMTSMSQLVILKPAFLDGKQWDPELENQRIDRLLQRLPAQMNLNFKIALGHFFPENGGIARSYQTALETLALGKQLNPEGNKYLFEDYSLQVLLSGLKYDWRGQALAMPYQQLAKADKNGQLRKTLAAYITHFGDAQQCANTLFIHRNTLRYRLDKIQQITQADIQSLHGLLSLYLGQLIDSSKNTG, MGSDKIHHHHHHMYMEKRQFIKDIAVNGDVNGLFLIASANQMQAKNGPFWRLEICDASGTLNAKIWSPLSASFETLTPGDVVHLEGRAGLFRDRIDISVDRMRVLAPYELEALDMGQFLVSSERDPAEMLTELLELCREVFTHRPWRKFVTGVLRNEELAEALKAAPAAKSVHHAYRGGLLEHILSVSGLCMRIADHYPEIDRQVLLAGAIFHDIGKAWELSGGLVNDYTDEGRLLGHIHIGLEQLEPFLRRSGLEHELAVHFKHLILSHHGEYEFGSPRRPKTREAMVLHYADNLDAKMAQLNSLFKGFEDGETGWTPFQPTLQRFLYNPVRTPETETVRRKRPETPREEQCSLLSKG, MGSDKIHHHHHHMYPECAKLPTFLRTVHEDVDAQARSLFTLDQNYMQVDPGPFCGTMATCDFGTGLVVSFEQVNKRVLQVAAVPFGTAQVALILEAGEPTTHNQVGRIRNAGVVMAPGAEARLSAGANTRVCLISIAGEAADHLRSRYNFDPDSLRADIFLDPAETTALRGLVTEAYQRFSSPQADRSFDQASAAAFHEAVLSVTAWTCASSARTQNQHRVAGDCRTTALTAAIRLIDHNLHNPVTVEWLARTLGVSRRSLEQAFGEAFDTSPGRYIKVLRLNSLRQMLRDPSNAEVSIGDLAARCGLWHQGRLASEFRELFGVLPSEARG, MGSDKIHHHHHHMYPKNFWYVGAMKHEVGRQLLARTLLEQPVVFFRRNDGSVAALADRCSHRRVSLSLGRLIGDEVQCGYHGLTFAGDGSCTSIPGQSRVPPSACVRSYPVVERDGFVWIWPGDPALANETLVPDYAEICSSGRYVGRPAEALLVEAPFLFNIENVLDLSHVTYAHPETVGTPEVALTRPTVDVSEAKVQVTRNWDKASTGPSFKNLFGWDFVKNSQRISFWPGANMLLEIEVEPVGNNDPTQIKRLRVPGPCTPSTSTTHFKFSALYRDFLPDNEALTVGMFEQFRKTVMEDKVLMENQQRNWALDGVEVIRRIEPSSSGGMMDIAVDHAPLAARRWLQRLAMAERSAPEIKAPGVLQG, MGSDKIHHHHHHPAAVKKIIETGQTDNRVMHQLDILTNRFGGRVIGSDAYENAAEWMMREYKRWGIDVRLEEAGELPVGFNRGPWFGRLIGGDQAMDLHFVTPSYTSGTKGLQRGHVLIEPRTQEELDRMKHQLKGAWVLISGENVGWPVDRSAKGDSLRAAIKAENIEIEKQNAALMEENWSKGTKHAMKPLREMPGLFYKEMCEAGALGFIQSAPVPLRALYDRALLNDPHTTFDNLPEVCDIKLDEHQYKIIKQMVKERRNFWLEFDIRNHFKLGPVKYHNVVASIKGTKYPDEYVIISGHLDSYDVATGGIDCGTGIGPMMEAARMIALSGAKPKRTILFVAFAGEEFGLLGAKAYVKTHAKELGKIANLFNRDGGPTPPVGISVPQAMYDDFVEVCKPVKEIRADYPFEVKVAKPFKRPTQSGGTDASVFAVEGVPTFGFNTQDIKGYNFSYGEIWHTERDLYTKNIPEYQEHAATVTAVVALGIANLSKQLSREGMHKK, MGSDKIHHHHHHPVWNPDNGNGTFTNPIMWGDWPDPDVIRVGDDFYFVSTSMHYVPGCPIATSKDLVNWKMAGYAVDRYDEDARYDLKGGDRYLRGSWAATIRHHNGKFYVGFCTPSWEGEGPGHFSICIADDVKGPWERTIFPEYLYDPGLLFDDDGKVYVFHGQGTLYVTELASDAKSVKGEKVKIWDKRFKNAHEFGGGYGMEGAHAYKINGKYYLTCPAGGTEGWQICLRSDNIYGPYEHKLIMNDSGSYPPNGLHQGGMVQLKNGDWWFIIMQDRGPIGRVPHLVPVKWVDGWPMLGSGGKDIITYPKPEVGKTYPFASPATTDEFNTSSLGLQWQWNHNPDNSRWSLKERKGHMRLKASYAESLKTARNTLTQRVQGPSSEATVELDVSGLKDGNVAGFGVFEFPYAYVAVEQTNGEKKIVMCNDGQTIETIDRFEGNKIWIRARVMDVGFRAVFYYSTDGKYFLPIGNELSMGLGLVWTANRFALFNFSKEKAGEDGYTDFNWFRFTNK, MGSDKIHHHHHHSCGNKDKGTTVPEGNPSDREAMLKNVADNIVIPANAKFEIKLDNMIAKSDVFRNNPTVTTLSEYRIAWAEAYIEWQKIGIFDFGPAADVALNSYMNVYPANVSNINANILSGNANLEVFESYSAQGFPAIDYLINGSADTDDDIVALYVTGEDADKRKAYLLRLTNQMHAKFEAVNAAWKGDYRNTFVSSTGTGLNASTSVMVNGIVFYYERFIRSGKFGIPSGAMTGTPLNASVEAYYKKDIGKILAQTAQQAFVDYFNGKGVTTGIEGPSLKTYLNALDAKDATTKQPLSEIINNQFTVVDSKLNVLSDNLSNEVLTNKAAMVAVYNEMQKAVRMLKVDMTSALSVTITYTDNDGD, MGSDKIHHHHHHSDDNKTTGATYDPNQPVTVESFMPVEGKLREKVIVKGSNFGTDKSKVKVYFVDEAAERLSTVIGIDNNTLYCLAPRQLPGGNRIKVIVDGKEVTTDGTFKYEQAQNVSTISGSASKDGNDDGDLASAKFKYMWGIAAVGNNTVLAYQRDDPRVRLISVDDNKVTTVHPGFKGGKPAVTKDKQRVYSIGWEGTHTVYVYMKASGWAPTRIGQLGSTFSGKIGAVALDETEEWLYFVDSNKNFGRFNVKTQEVTLIKQLELSGSLGTNPGPYLIYYFVDSNFYMSDQNLSSVYKITPDGECEWFCGSATQKTVQDGLREEALFAQPNGMTVDEDGNFYIVDGFKGYCLRKLDILDGYVSTVAGQVDVASQIDGTPLEATFNYPYDICYDGEGGYWIAEAWGKAIRKYAVE, MGSDKIHHHHHHSEEIFNGQVTDGEHSGAQLNIVPTVSSESTETRAGFDPKTDWAAGDALGLFMYKSSGWGDAYPRYDAQNNKSTRQANGWSQASPVYLLVDKATIWAYYPYNQAVTDGTKIPVPINVGTSVDYMWGKSTNQVSVIETDARIPMKHALSQFVVRLKVSPEYHNDGNLTSAKLKATGAKFATTGTMNLNDGGKITFQPTSTELTWSPNTTVPAQGQQAVDYAAAIYPMTLAAGEVSLEVVIDGATYTYAIPQITWEAGKRYIYSITMRSNDAEIGGENGQSVTIEGWTSTEEDITLVPVK, MGSDKIHHHHHHSNKKTVDPNPVVRDNIIHLSTAIKNVREEMMLSELVDSVSYIPLETNPNCMLGNYQRLTFSPQYIFYSNYCFDWNGQFLFRIGSQGQGACEDIYVHVADIVYLNNHFYGNASKIIEYDDRGKCTGKELSWFTQKTMDTAPVGHLVNQVCFAPAGENLMFYNFPDTVYFINTDYEFVAKRSMMPWGRKGGAPSMSGGDPRFKYTSYYKDTTLFYNFYTDTVFTVTPTSLMPRWVVELDEELRFPTRYLYEDGLLSEAFKCWESGNLENAKMIKLLDHKYMVSGVFETERFVFLSVYECMPFRELRKLPETPPLTAIYNKRTGETFAVKQVVDDLGGMKAFFPSWGAYNEKLLATIWPYKLKEFIEEEQSAGRTVAPQILNLMQRVREDDNPVLIIAHLKK, MGSDKIHHHHHHTEDTFWKDETDFNLALTSCYTPLKNALNGGYYGTRGVMLRIARADEVDFRNDISDVYTVNRFTNSNTNSLTQGMFYQFYNALYRTNSIMQKLEEKKEQFSTDFQNSVKGECLFIRGFYLFQLAKEFKDAPLRLTASQSPSTFPLAKSSQADIWAQAKEDLKTAASLLPITNKIGKPTQGAAYAALGKIYVYEENWQEAINVLEPLTQNPYTYKLVEDFNWNFDDTHENNAESIFELLIEDVGGTDLWGDGENINSTQSNTRPKEYAAAEVGGWYEANPTQQIMDIFWKEKDKDGNFDYRARCSVAWDYEGCTYYQRPFREVFAQDKWKTYWILKYQNWKTQKDEPAPPKSFINERAIRYADVLLMLAEAYMNKGALDTSIGYINQIRRRANLNDYSGPITKEGVFEDLVHQRAIEFFVEGERFYDLRRWGLLEQTLKTCDDTRYKNYQTGKSDNINKFNYFPIPAKELDTNPLCTPSEGW, MGSDKIHHHHHHTEDTVIKVSVLRGPSVIAFADWLENPPIIDNKKVQVKVVDSPDLAQALLIKQETDIAVLPMINAANLYNKGIKIKLAGCPIWGTLYLVEKTPLKEPALYVFGNGTTPDILTRYYLGRQRLDYPLNYAFNTAGEITQGILAGKVNRAVLGEPFLSIALRKDSSLRITADLNHLTDNDTLGFAQTAVVYTPTMEKYRIAFEDALRASCQKAVRYPKETIHSLEEHGIFAQGALTPKSIERCKIYYLSAIEAKDAVMGFLRLIEQYEPKAVGGRLPDAGFIPEKQ, MGSDKIHHHHHHVAKAAQRKLLLSELQLGMRVKLPLSWTNHPFLFNRVDINSLAQIEMIRGLGVPYVFLLSEVNTKSEQPSTDNKIIEVQEQPKTERDIKSATRKAMRLSQKRFLEGVNQCRNMFGKIVSDPEGAYRQSATLVEEMLSHLQEVEQPFLTLVGMDENEVSVTQHGVSVAVIAMMIGHALDLTPRELRDIALGSLLHDIGKLKVPENIRRKLSALTTNEANYLQMHPNFGYDMLNRSGLFPKEVLNIVLHHHEFIDGSGFPDGLTGNKIPIVTQIVALANDFDQHLSGQQASSPQVALGYLFKNRAAKHAESLISVLVKILGIYPPGTIVKLSDDSVAKVIMTTKEVAQPQVWACKPDGSEASLRFLSEEGVTVQKALKAEELTEGAIRTLQVDKGVSFYFSALQA, MGSDKIHHHHHHVFAGFDYGSANCAMAVCEGDSVRLLPIGDSGGQYLMSVVYALDVSFITEAVCQRLPDNQARALVQKRGAELARARRMRQELDLTATDDTVFIGEAALKAYLDTPEEGFFVRSPKSFLGATGLRPEQVALFEDIVTLMMLEVKGRADALLQNPVTHAVIGRPVNFQGIGGEEANIQAQSILQIAAMRAGFTQVSFLFEPLAAAFDFESSLEADKRVLVVDVGGGTTDCSLVTMGPNKRSQTERSEDCLGHSGQRIGGNDLDIALAMECLMPHYGLGDMLSTGKPMPRQMFWQAVAINDVGAQRDFFSLSYATAIKELRKDAINPDALDRLARLRRDQQHCQLVKLAELAKIDLSGEELTQVEHPDGAHTSVAADAFGLAIAPLVQRIGELMRAAVGDESSPDLIYVTGGSSRCPQVASSIAAVYPGVEVVQGDSFGSVTAGLARRAALEFA, MGSDKIHHHHHHVHACGAETAPRCVTSYPFAQMPTAQTKKEKRPPASIESRIAECYDELSEIDQRLADVILSAPGQLAMQTATELASSAQVSKATATRFFQKLGYASYDDARAIARAAQVGGSPLYLQDRGRKTAGSKLDDVIQRHLQHEVENMANTYRSLDTQVLSEVVDAIAQARRVAIIGYRHSYTVATMIRRELIQVRSDVMLLPAPGDTIGEYLADLNAKDLAIVIGLRRRVPAVGLATAALAEAGVPVVYMSDVIAGKPARLARWVIRCHTDGLMLFDSKAGMTAVVNLICSLVAERVLDRSNSHLQRVEVLHDSLRELE

Source: the DeepSol protein solubility set
